Variants at the floor of the assay were thinned out.
Key:
biotinyl-Phe-oxazolone = test: self-aminoacylation, catalytic enhancement (BFO) (fold over background); higher = more active; k-Seq, kA / k0A0; sequences stand for … in GGGAAUGGAUCCACAUCUACGAAUUC…UUCACUGCAGACUUGACGAAGCUG
Procedure, shortened: (§1)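 Each biotinyl-aminoacyl-oxazolone, at 2–1250 μM, was incubated with mutagenized RNA pools (0.43 μM) carrying a 21-nt variable region. The 50 μL reactions contained HEPES/NaCl/KCl/MgCl2/CaCl2 buffer with 5% acetonitrile at pH 6.9–7.0 and ran for 90 minutes at room temperature. After streptavidin capture, RNA was measured by qPCR in triplicate and by Illumina sequencing, and catalytic enhancement was calculated as median kA over the uncatalyzed rate from a pseudo-first-order fit of per-sequence fraction reacted.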

biotinyl-Ile-oxazolone = test: self-aminoacylation, catalytic enhancement (BIO) (fold over background); higher = more active; k-Seq, kA / k0A0; sequences stand for … in GGGAAUGGAUCCACAUCUACGAAUUC…UUCACUGCAGACUUGACGAAGCUG
Procedure, shortened: as §1

biotinyl-Met-oxazolone = test: self-aminoacylation, catalytic enhancement (BMO) (fold over background); higher = more active; k-Seq, kA / k0A0; sequences stand for … in GGGAAUGGAUCCACAUCUACGAAUUC…UUCACUGCAGACUUGACGAAGCUG
Procedure, shortened: as §1

biotinyl-Val-oxazolone = test: self-aminoacylation, catalytic enhancement (BVO) (fold over background); higher = more active; k-Seq, kA / k0A0; sequences stand for … in GGGAAUGGAUCCACAUCUACGAAUUC…UUCACUGCAGACUUGACGAAGCUG
Procedure, shortened: as §1

biotinyl-Leu-oxazolone = test: self-aminoacylation, catalytic enhancement (BLO) (fold over background); higher = more active; k-Seq, kA / k0A0; sequences stand for … in GGGAAUGGAUCCACAUCUACGAAUUC…UUCACUGCAGACUUGACGAAGCUG
Procedure, shortened: as §1

biotinyl-Trp-oxazolone = test: self-aminoacylation, catalytic enhancement (BWO) (fold over background); higher = more active; k-Seq, kA / k0A0; sequences stand for … in GGGAAUGGAUCCACAUCUACGAAUUC…UUCACUGCAGACUUGACGAAGCUG
Procedure, shortened: as §1

Sequence	self-aminoacylation (biotinyl-Phe-oxazolone)	self-aminoacylation (biotinyl-Ile-oxazolone)	self-aminoacylation (biotinyl-Met-oxazolone)	self-aminoacylation (biotinyl-Val-oxazolone)	self-aminoacylation (biotinyl-Leu-oxazolone)	self-aminoacylation (biotinyl-Trp-oxazolone)
AAGUUUGCUAAUAGUAGCAUG [Fam3.1 aminoacylation ribozyme variant]	1.67	1.04	0.815	0.851	0.991	1.03
CCACACGUCAAGCAUUCGGUC [Fam1B.1 aminoacylation ribozyme variant]	5.03	2.03	2.23	3.21	1.71	2.16
AUUACCCGGGUCAUCGCGUGA [Fam2.1 aminoacylation ribozyme variant]	178	12	25.4	15.6	28.3	27.8
CCACACUUCAAGCAACCGGUC [Fam1B.1 aminoacylation ribozyme variant]	1.31	0.933	0.783	1.01	0.721	0.935
AUUCACCUAUGUCAUCAGGUG [Fam2.2 aminoacylation ribozyme variant]	8.58	1.72	2.39	1.64	2.75	2.33
AAUACCCAGGUCAUCGAGUGA [Fam2.1 aminoacylation ribozyme variant]	17.6	2.87	4.41	2.56	4.58	5.81
AAGGUUGCUAAUAGUCGCAUG [Fam3.1 aminoacylation ribozyme variant]	2.16	1.66	1.34	1.34	1.45	2
AUUCAACUGGGUCAUCGGGUG [Fam2.2 aminoacylation ribozyme variant]	39.5	3.89	5.25	3.96	7.37	5.74
UAGUUCGCUAAUAGUCGCAAG [Fam3.1 aminoacylation ribozyme variant]	6.84	1.81	1.55	1.86	1.81	1.88
AAGUUUGCUCAUAAUCGCAAG [Fam3.1 aminoacylation ribozyme variant]	0.71	0.812	0.699	0.766	0.726	0.658
CUACUUCAAACAUUCGCUCUG [Fam1A.1 aminoacylation ribozyme variant]	3.16	1.07	1.12	0.985	1.24	0.81
CAGAUUGCUAAUAGUCGCAAG [Fam3.1 aminoacylation ribozyme variant]	1.9	1.37	1.24	1.28	1.23	1.31
CUACUACAAACAAUCGAUCUG [Fam1A.1 aminoacylation ribozyme variant]	0.759	0.808	0.52	0.719	0.593	0.665
GUUCACCUAGGGCAUCGGGUG [Fam2.2 aminoacylation ribozyme variant]	23.4	3.29	3.44	3.42	3.57	4.28
AUCACCCUGGUCAUGGAGUGA [Fam2.1 aminoacylation ribozyme variant]	34	3.54	6.29	3.58	6.86	6.96
AUUCACCUAGGUCAUCGCAUG [Fam2.2 aminoacylation ribozyme variant]	0.374	1.05	1.04	1.28	1.22	1.06
AUUCACCUUGGUCAUCCGGUG [Fam2.2 aminoacylation ribozyme variant]	60.2	6.27	8.93	6.17	11.5	7.75
CUACUUCAAACAAUGGGUGUG [Fam1A.1 aminoacylation ribozyme variant]	0.967	1.29	1.32	1.08	1.34	0.947
AUUACCCACGUCAUCGAGUGA [Fam2.1 aminoacylation ribozyme variant]	15.6	2.46	4.44	2.9	4.38	4.53
AUUACCCAGGUCAUCGAGUAA [Fam2.1 aminoacylation ribozyme variant]	1.09	1.49	1.54	1.06	1.16	1.57
CCACACUUCAGGCAAUUGGUC [Fam1B.1 aminoacylation ribozyme variant]	0.558	0.887	0.647	0.83	0.823	0.556
AAGUUUGCUAAUAGUCGGCAG [Fam3.1 aminoacylation ribozyme variant]	1.3	0.923	0.98	0.785	0.983	1.28
AUGACCCUGAUCAUCGAGUGA [Fam2.1 aminoacylation ribozyme variant]	19.5	2.73	5.56	2.84	5.85	6.06
AUUCACCUAGGUCAUCGAGUA [Fam2.2 aminoacylation ribozyme variant]	31.7	7.22	9.81	5.92	13.1	3.9
AUACUUCAAACAAUGGGUCUG [Fam1A.1 aminoacylation ribozyme variant]	0.774	0.935	0.862	0.921	0.847	0.934
AUUACCCUGGUCAUCGUGUGC [Fam2.1 aminoacylation ribozyme variant]	1.25	0.992	0.938	0.881	1.12	0.349

Sequence	self-aminoacylation (biotinyl-Phe-oxazolone)	self-aminoacylation (biotinyl-Ile-oxazolone)	self-aminoacylation (biotinyl-Met-oxazolone)	self-aminoacylation (biotinyl-Val-oxazolone)	self-aminoacylation (biotinyl-Leu-oxazolone)	self-aminoacylation (biotinyl-Trp-oxazolone)
AUGCACCUAGCUCAUCGGGUG [Fam2.2 aminoacylation ribozyme variant]	3.64	1.62	1.57	2.4	2.11	2.72
AAGUAUGCUAACAGUCGCAAG [Fam3.1 aminoacylation ribozyme variant]	13.3	1.82	1.42	1.54	1.45	4.66
AUUACCUUGGUCAUCGAAUGA [Fam2.1 aminoacylation ribozyme variant]	0.902	1.14	0.77	0.945	1.1	0.837
CUACUUCAAACUAUCGGUCGG [Fam1A.1 aminoacylation ribozyme variant]	0.997	1.05	1.02	0.893	1.01	1.05
AAUACUCUGGUCAUCGAGUGA [Fam2.1 aminoacylation ribozyme variant]	8.91	2.59	3.85	2.77	3.72	5.7
AAGUUUGCUAAUGGACGCAAG [Fam3.1 aminoacylation ribozyme variant]	1.18	0.591	0.604	0.576	0.83	0.56
CCACACUUCAACUAAUCGGUC [Fam1B.1 aminoacylation ribozyme variant]	22.8	0.859	0.753	0.925	1.04	11.6
AUGCACCUAGGUCAUCGGGUA [Fam2.2 aminoacylation ribozyme variant]	42	6.6	10.2	5.82	12.9	9.92
AAGUUUGCUAAUAAUCCCAAG [Fam3.1 aminoacylation ribozyme variant]	1.03	0.76	0.949	0.961	0.736	1.38
CUAAUUCAAACAAUCUGUCUG [Fam1A.1 aminoacylation ribozyme variant]	1.1	0.784	0.64	0.665	0.525	0.748
AUUCACCUAGGGAAUCGGGUG [Fam2.2 aminoacylation ribozyme variant]	36.4	3.54	5.05	3.23	7.44	4.86
CUACUUCGAACAAUCGGUCUC [Fam1A.1 aminoacylation ribozyme variant]	0.828	0.781	0.66	0.683	0.648	0.507
AUUCUCCUAGGUCAGCGGGUG [Fam2.2 aminoacylation ribozyme variant]	43.1	4.22	6.21	3.99	8.81	8.04
AUUGCCCUGGUCAUCAAGUGA [Fam2.1 aminoacylation ribozyme variant]	5.6	1.39	2.36	1.65	2.05	2.85
CCACCCUUCAAGCAAUCGGUG [Fam1B.1 aminoacylation ribozyme variant]	63.7	4.86	7.37	4.61	10.2	6.85
CCACACUUCACACAAUCGGUC [Fam1B.1 aminoacylation ribozyme variant]	0.775	0.878	0.601	1.02	0.687	0.837
AUUACCCAGGACAUCGAGUGA [Fam2.1 aminoacylation ribozyme variant]	56.4	3.56	8.33	3.9	7.26	8.66
CUACUUCAAACAACUGGUCUG [Fam1A.1 aminoacylation ribozyme variant]	0.753	0.734	0.603	0.654	0.678	0.661
AUUCACCUAAAUCAUCGGGUG [Fam2.2 aminoacylation ribozyme variant]	34.6	3.11	5.3	2.56	6.91	5.55
UAGUUUGCUAAUAGUCGCAAU [Fam3.1 aminoacylation ribozyme variant]	3.04	1.52	1.38	1.61	1.28	1.88
CCACCCUUCAAGCAAUUGGUC [Fam1B.1 aminoacylation ribozyme variant]	1.33	0.814	0.907	0.984	0.814	1.04
AAGUUCGCUAAUAGUCGCCAG [Fam3.1 aminoacylation ribozyme variant]	11.6	2.33	1.84	1.81	1.79	2.27
AAUACCCUGGUCAUCAAGUGA [Fam2.1 aminoacylation ribozyme variant]	2.42	1.15	1.48	1.16	1.56	1.75
AUUCACAUAGGUCCUCGGGUG [Fam2.2 aminoacylation ribozyme variant]	51.3	4.33	7.55	4.71	9.43	7.63
CUGCUUCACACAAUCGGUCUG [Fam1A.1 aminoacylation ribozyme variant]	0.641	0.733	0.911	0.757	0.836	0.824
